Test results as given in US20230366033A1, “METHODS FOR TREATING CANCERS WITH INHIBITORS TARGETING THE ROLE OF GRB2 IN DNA REPAIR” (Board of Regents, The University of Texas System, priority 2020, published 2023).

Legend:
[1] = biological target: GRB2-SH2 domain, purified, Atto488-labelled (UniProt P62993); test: MST; 100 nM Atto488-labelled GRB2-SH2 domain, peptide titrated; pEGFR phosphopeptide, comparator; cited to a figure and Ahmed et al., 2015
[2] = biological target: GRB2 K109R mutant, bacterially expressed and purified (UniProt P62993); test: MST, 100 nM Atto488-labelled K109R GRB2, peptide titrated
[3] = biological target: RING2 E3 ubiquitin ligase, endogenous, in HEK293T cells (UniProt Q99496); test: GRB2 immunoprecipitation-mass spectrometry in HEK293T cells (mean of three data sets) [panel G]
[4] = biological target: CBLL1 E3 ubiquitin ligase, endogenous, in HEK293T cells (UniProt Q75N03); test: as above
HERC1 (human) = HERC1 (human) (UniProt Q15751); test: as above
[5] = biological target: Histone H2AX, endogenous, in HEK293T cell extracts (UniProt P16104); test: Strep-Tactin purification of Strep-GRB2 from HEK293T nuclear extracts, mass spectrometry (mean of three data sets) [panel A]

CBLL1 E3 ubiquitin ligase, endogenous, in HEK293T cells, sequence (Q75N03 whole entry): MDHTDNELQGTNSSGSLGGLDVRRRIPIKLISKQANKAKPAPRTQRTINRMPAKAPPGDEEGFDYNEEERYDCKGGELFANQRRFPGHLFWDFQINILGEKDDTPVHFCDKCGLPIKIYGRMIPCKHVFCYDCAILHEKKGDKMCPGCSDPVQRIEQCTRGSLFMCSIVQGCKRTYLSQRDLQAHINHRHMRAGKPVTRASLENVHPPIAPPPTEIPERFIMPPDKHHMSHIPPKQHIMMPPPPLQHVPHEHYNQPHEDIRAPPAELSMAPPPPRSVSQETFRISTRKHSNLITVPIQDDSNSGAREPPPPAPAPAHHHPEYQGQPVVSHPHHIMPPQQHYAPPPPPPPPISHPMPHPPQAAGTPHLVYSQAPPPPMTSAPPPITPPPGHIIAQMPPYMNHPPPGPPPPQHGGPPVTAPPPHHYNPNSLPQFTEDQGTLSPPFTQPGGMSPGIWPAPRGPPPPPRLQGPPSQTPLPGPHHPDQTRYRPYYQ
RING2 E3 ubiquitin ligase, endogenous, in HEK293T cells, sequence (Q99496 2-336 limits assumed): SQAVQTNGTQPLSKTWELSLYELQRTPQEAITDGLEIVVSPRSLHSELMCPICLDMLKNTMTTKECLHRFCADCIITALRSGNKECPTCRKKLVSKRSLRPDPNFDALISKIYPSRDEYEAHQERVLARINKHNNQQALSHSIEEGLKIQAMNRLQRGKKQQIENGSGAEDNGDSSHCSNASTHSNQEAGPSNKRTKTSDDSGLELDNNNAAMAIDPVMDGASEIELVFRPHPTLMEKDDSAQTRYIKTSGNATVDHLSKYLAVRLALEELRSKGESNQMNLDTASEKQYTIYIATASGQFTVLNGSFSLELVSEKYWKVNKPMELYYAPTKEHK

Row | Substance | Kd [1] [µM] | Kd [2] [µM] | Coverage(%) [3] [%] | Peptides [3] [peptides] | Coverage(%) [4] [%] | Peptides [4] [peptides] | Coverage(%) (HERC1 (human)) | Peptides (HERC1 (human)) [peptides] | Coverage(%) [5] [%] | Peptides [5] [peptides]
1 | Phosphorylated EGFR synthetic peptide FLPVPE(pY)INQSVPKR | 7.2 | 2.6 |  |  |  |  |  |  |  | 
2 | Strep-tagged wild-type GRB2 expressed in cells (HEK293T; reconstituted GRB2-KO cells) (from UniProt P62993 1-217) |  |  | 15 | 4 | 3 | 1 | 0 | 1 | 71 | 16
